{"source": "patent US20180155451A1", "about": "(published 2018)", "binders": {"B1": {"name": "GpH7-B3 variant T335_19Q/GpL16-k0 (antibody, human IgG1, kappa)", "heavy": "not shown", "light": "DIVMTQSPLSLPVTPGEPASISCQASESLVHSNRNTYLHWYLQKPGQSPQLLIYKVSNRFSGVPDRFSGSGSGTDFTLKISRVEAEDVGVYYCSQNTHVPPTFGQGTKVEIERTVAAPSVFIFPPSDEQLKSGTASVVCLLNNFYPREAKVQWKVDNALQSGNSQESVTEQDSKDSTYSLSSTLTLSKADYEKHKVYACEVTHQGLSSPVTKSFNRGEC", "notes": "homodimerized IgG1; mutation in both H chains; also called Ho Ab"}, "B2": {"name": "GpH7-B3 variant T335_20W/GpL16-k0 (antibody, human IgG1, kappa)", "heavy": "not shown", "light": "B1 light", "notes": "as for B1"}, "B3": {"name": "GpH7-A5/GpH7-B3 variant Y296_11K/GpL16-k0 (antibody, human IgG1, kappa)", "heavy 1": "not shown", "heavy 2": "not shown", "light": "B1 light", "notes": "heterodimerized IgG1; mutation in one H chain only; also called He Ab"}, "B4": {"name": "GpH7-B3 variant Y296_10E/GpL16-k0 (antibody, human IgG1, kappa)", "heavy": "not shown", "light": "B1 light", "notes": "as for B1"}, "B5": {"name": "GpH7-A5/GpH7-B3 variant Y296_19Q/GpL16-k0 (antibody, human IgG1, kappa)", "heavy 1": "not shown", "heavy 2": "not shown", "light": "B1 light", "notes": "as for B3"}, "B6": {"name": "GpH7-A5/GpH7-B3 variant Y296_16H/GpL16-k0 (antibody, human IgG1, kappa)", "heavy 1": "not shown", "heavy 2": "not shown", "light": "B1 light", "notes": "as for B3"}, "B7": {"name": "GpH7-A5/GpH7-B3 variant Y300_20W/GpL16-k0 (antibody, human IgG1, kappa)", "heavy 1": "not shown", "heavy 2": "not shown", "light": "B1 light", "notes": "as for B3"}, "B8": {"name": "GpH7-B3 variant Y300_20W/GpL16-k0 (antibody, human IgG1, kappa)", "heavy": "not shown", "light": "B1 light", "notes": "as for B1"}, "B9": {"name": "GpH7-B3 variant Y300_10E/GpL16-k0 (antibody, human IgG1, kappa)", "heavy": "not shown", "light": "B1 light", "notes": "as for B1"}, "B10": {"name": "GpH7-A5/GpH7-B3 variant Y296_14T/GpL16-k0 (antibody, human IgG1, kappa)", "heavy 1": "not shown", "heavy 2": "not shown", "light": "B1 light", "notes": "as for B3"}, "B11": {"name": "GpH7-B3 variant Y300_03V/GpL16-k0 (antibody, human IgG1, kappa)", "heavy": "not shown", "light": "B1 light", "notes": "as for B1"}, "B12": {"name": "GpH7-A5/GpH7-B3 variant Y296_12R/GpL16-k0 (antibody, human IgG1, kappa)", "heavy 1": "not shown", "heavy 2": "not shown", "light": "B1 light", "notes": "as for B3"}, "B13": {"name": "GpH7-A5/GpH7-B3 variant Y296_20W/GpL16-k0 (antibody, human IgG1, kappa)", "heavy 1": "not shown", "heavy 2": "not shown", "light": "B1 light", "notes": "as for B3"}, "B14": {"name": "GpH7-B3 variant Y300_02A/GpL16-k0 (antibody, human IgG1, kappa)", "heavy": "not shown", "light": "B1 light", "notes": "as for B1"}, "B15": {"name": "GpH7-B3 variant Y296_18N/GpL16-k0 (antibody, human IgG1, kappa)", "heavy": "not shown", "light": "B1 light", "notes": "as for B1"}, "B16": {"name": "GpH7-B3 variant Y300_08L/GpL16-k0 (antibody, human IgG1, kappa)", "heavy": "not shown", "light": "B1 light", "notes": "as for B1"}, "B17": {"name": "GpH7-A5/GpH7-B3 variant T335_18N/GpL16-k0 (antibody, human IgG1, kappa)", "heavy 1": "not shown", "heavy 2": "not shown", "light": "B1 light", "notes": "as for B3"}, "B18": {"name": "GpH7-B3 variant Y300_14T/GpL16-k0 (antibody, human IgG1, kappa)", "heavy": "not shown", "light": "B1 light", "notes": "as for B1"}, "B19": {"name": "GpH7-A5/GpH7-B3 variant Y300_13S/GpL16-k0 (antibody, human IgG1, kappa)", "heavy 1": "not shown", "heavy 2": "not shown", "light": "B1 light", "notes": "as for B3"}, "B20": {"name": "GpH7-A5/GpH7-B3 variant Y300_06M/GpL16-k0 (antibody, human IgG1, kappa)", "heavy 1": "not shown", "heavy 2": "not shown", "light": "B1 light", "notes": "as for B3"}, "B21": {"name": "GpH7-A5/GpH7-B3 variant Y300_19Q/GpL16-k0 (antibody, human IgG1, kappa)", "heavy 1": "not shown", "heavy 2": "not shown", "light": "B1 light", "notes": "as for B3"}, "B22": {"name": "GpH7-A5/GpH7-B3 variant Y300_10E/GpL16-k0 (antibody, human IgG1, kappa)", "heavy 1": "not shown", "heavy 2": "not shown", "light": "B1 light", "notes": "as for B3"}, "B23": {"name": "GpH7-B3 variant Y300_19Q/GpL16-k0 (antibody, human IgG1, kappa)", "heavy": "not shown", "light": "B1 light", "notes": "as for B1"}, "B24": {"name": "GpH7-B3 variant Y296_11K/GpL16-k0 (antibody, human IgG1, kappa)", "heavy": "not shown", "light": "B1 light", "notes": "as for B1"}, "B25": {"name": "GpH7-B3 variant Y296_16H/GpL16-k0 (antibody, human IgG1, kappa)", "heavy": "not shown", "light": "B1 light", "notes": "as for B1"}, "B26": {"name": "GpH7-A5/GpH7-B3 variant Y296_18N/GpL16-k0 (antibody, human IgG1, kappa)", "heavy 1": "not shown", "heavy 2": "not shown", "light": "B1 light", "notes": "as for B3"}}}
{"target": "T1, FcγRIa (human, UniProt P12314 16-292)", "T1 construct": "extracellular domain; also called FcgRI; CD64; not shown: C-terminal His tag", "T1 sequence (P12314 16-292)": "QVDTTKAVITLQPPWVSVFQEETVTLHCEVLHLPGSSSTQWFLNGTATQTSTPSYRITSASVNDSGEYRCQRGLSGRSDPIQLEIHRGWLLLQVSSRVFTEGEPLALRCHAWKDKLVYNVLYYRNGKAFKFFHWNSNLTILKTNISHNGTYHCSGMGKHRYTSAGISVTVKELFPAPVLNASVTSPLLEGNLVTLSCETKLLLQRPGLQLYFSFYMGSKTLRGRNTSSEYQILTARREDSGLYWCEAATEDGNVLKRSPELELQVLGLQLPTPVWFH", "experiment": "SPR (Biacore), antibody captured on antigen peptide chip, FcγRIa as analyte; relative binding amount", "procedure": "Analysis of interaction between objective antibody and the FcγR was carried out using Biacore T100 (GE Healthcare). HBS-EP+ (GE Healthcare) was used as the running buffer, and the measurement temperature was set to 25° C. Chips produced by immobilizing the antigen peptide by the amine coupling method to a Series S Sencor Chip CM5 (GE Healthcare), or alternatively, chips produced by allowing preliminarily biotinylated antigen peptides to interact with and immobilize onto a Series S Sensor Chip SA (certified) (GE Healthcare) were used. Antibodies of interest were captured onto an antigen peptide-immobilized chip, and allowed to interact to each FcγR diluted with running buffer. To regenerate and repeatedly use the chip, the antibodies captured on the chip were washed off by reacting 10 mM glycine-HCl, pH 1.5."}
{"binder": "B1", "Ho/Con_1a": "105 % of control (GpH7-B3/GpL16-k0 = 100)"}
{"binder": "B2", "Ho/Con_1a": "104 % of control (GpH7-B3/GpL16-k0 = 100)"}
{"binder": "B3", "He/Con_1a": "105 % of control (GpH7-A5/GpH7-B3/GpL16-k0 = 100)"}
{"binder": "B4", "Ho/Con_1a": "106 % of control (GpH7-B3/GpL16-k0 = 100)"}
{"binder": "B5", "He/Con_1a": "112 % of control (GpH7-A5/GpH7-B3/GpL16-k0 = 100)"}
{"binder": "B6", "He/Con_1a": "106 % of control (GpH7-A5/GpH7-B3/GpL16-k0 = 100)"}
{"binder": "B7", "He/Con_1a": "112 % of control (GpH7-A5/GpH7-B3/GpL16-k0 = 100)"}
{"binder": "B8", "Ho/Con_1a": "110 % of control (GpH7-B3/GpL16-k0 = 100)"}
{"binder": "B9", "Ho/Con_1a": "111 % of control (GpH7-B3/GpL16-k0 = 100)"}
{"binder": "B10", "He/Con_1a": "105 % of control (GpH7-A5/GpH7-B3/GpL16-k0 = 100)"}
{"binder": "B11", "Ho/Con_1a": "112 % of control (GpH7-B3/GpL16-k0 = 100)"}
{"binder": "B12", "He/Con_1a": "106 % of control (GpH7-A5/GpH7-B3/GpL16-k0 = 100)"}
{"binder": "B13", "He/Con_1a": "111 % of control (GpH7-A5/GpH7-B3/GpL16-k0 = 100)"}
{"binder": "B14", "Ho/Con_1a": "110 % of control (GpH7-B3/GpL16-k0 = 100)"}
{"binder": "B15", "Ho/Con_1a": "105 % of control (GpH7-B3/GpL16-k0 = 100)"}
{"binder": "B16", "Ho/Con_1a": "109 % of control (GpH7-B3/GpL16-k0 = 100)"}
{"binder": "B17", "He/Con_1a": "106 % of control (GpH7-A5/GpH7-B3/GpL16-k0 = 100)"}
{"binder": "B18", "Ho/Con_1a": "110 % of control (GpH7-B3/GpL16-k0 = 100)"}
{"binder": "B19", "He/Con_1a": "111 % of control (GpH7-A5/GpH7-B3/GpL16-k0 = 100)"}
{"binder": "B20", "He/Con_1a": "112 % of control (GpH7-A5/GpH7-B3/GpL16-k0 = 100)"}
{"binder": "B21", "He/Con_1a": "112 % of control (GpH7-A5/GpH7-B3/GpL16-k0 = 100)"}
{"binder": "B22", "He/Con_1a": "114 % of control (GpH7-A5/GpH7-B3/GpL16-k0 = 100)"}
{"binder": "B23", "Ho/Con_1a": "110 % of control (GpH7-B3/GpL16-k0 = 100)"}
{"binder": "B24", "Ho/Con_1a": "102 % of control (GpH7-B3/GpL16-k0 = 100)"}
{"binder": "B25", "Ho/Con_1a": "105 % of control (GpH7-B3/GpL16-k0 = 100)"}
{"binder": "B26", "He/Con_1a": "106 % of control (GpH7-A5/GpH7-B3/GpL16-k0 = 100)"}
